The test system of one data set is AncSZ. The data set is described as follows: phosphorylation enrichment, bacterial display (enrichment ratio); higher = better substrate or ligand; peptides without Tyr show the background.
Another data set deals with EPHB1 (UniProt P54762). Described as above.
The target of the next data set is EPHB2 (UniProt P29323). The description is as above.
In the next data set the target is FGFR1 (UniProt P11362). The data set is described as above.
For the next data set, the target named is FGFR3 (UniProt P22607). The description is as above.
Another data set concerns Fer (mouse). The description is as above.
The next data set concerns the target Fes (UniProt P07332). Described as above.
A further data set has as its target Fyn (UniProt P06241). Described as above.
For the next data set, the target named is Hck (UniProt P08631). The description is as above.
A further data set addresses Jak2 (UniProt O60674). Described as above.
In a further data set the target is MERTK (UniProt Q12866). Described as above.
A further data set has as its system c-Abl (mouse). Described as above.
In the next data set the test system is c-Src. Described as above.
The next data set deals with Grb2 SH2 (UniProt P62993). The experiment in a line: SH2 binding enrichment of the phosphorylated peptide, bacterial display (enrichment ratio); higher = better substrate or ligand; peptides without Tyr show the background.
For a further data set, the target named is SHP2-C SH2. The description is as above.
The target of a further data set is c-Src SH2. The description is as above.
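For SH2 binding enrichment of the phosphorylated peptide, bacterial display in this document: peptide library displayed on the E. coli surface as eCPX fusions, selected cells deep-sequenced, score is each peptide's frequency after selection divided by its frequency in the input.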
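For phosphorylation enrichment, bacterial display in this document: 11-residue human phosphosite peptides and single-mutation variants displayed on the E. coli surface, counted by deep sequencing, each peptide's frequency after selection divided by its frequency in the unselected input library; frequency after pTyr selection over input frequency; kinase dosed for 20-30% of maximal phosphorylation in three min.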

Chain of Fes (P07332 whole entry, looked up): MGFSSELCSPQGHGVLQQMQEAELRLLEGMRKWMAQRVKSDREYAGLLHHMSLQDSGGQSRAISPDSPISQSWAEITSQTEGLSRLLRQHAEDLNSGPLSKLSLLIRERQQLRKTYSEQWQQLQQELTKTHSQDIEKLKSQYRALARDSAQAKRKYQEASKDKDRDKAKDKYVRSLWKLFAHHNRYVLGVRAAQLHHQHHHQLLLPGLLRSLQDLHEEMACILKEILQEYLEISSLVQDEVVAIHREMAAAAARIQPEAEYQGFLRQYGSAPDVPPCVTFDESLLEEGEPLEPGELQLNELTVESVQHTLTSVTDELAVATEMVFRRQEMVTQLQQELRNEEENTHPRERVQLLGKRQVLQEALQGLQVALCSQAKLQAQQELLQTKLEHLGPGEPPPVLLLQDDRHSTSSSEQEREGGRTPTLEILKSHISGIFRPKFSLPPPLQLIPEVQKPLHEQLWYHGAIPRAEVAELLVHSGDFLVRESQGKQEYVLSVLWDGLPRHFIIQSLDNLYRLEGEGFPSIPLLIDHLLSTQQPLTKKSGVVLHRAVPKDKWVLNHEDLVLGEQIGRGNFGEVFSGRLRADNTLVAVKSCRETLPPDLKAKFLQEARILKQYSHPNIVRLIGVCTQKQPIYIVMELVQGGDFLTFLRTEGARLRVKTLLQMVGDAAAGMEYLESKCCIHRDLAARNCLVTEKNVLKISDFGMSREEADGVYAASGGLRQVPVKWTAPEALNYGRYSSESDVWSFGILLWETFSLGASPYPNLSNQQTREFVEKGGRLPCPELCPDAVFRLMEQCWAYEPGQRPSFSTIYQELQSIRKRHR
Chain of Jak2 (O60674 whole entry, looked up): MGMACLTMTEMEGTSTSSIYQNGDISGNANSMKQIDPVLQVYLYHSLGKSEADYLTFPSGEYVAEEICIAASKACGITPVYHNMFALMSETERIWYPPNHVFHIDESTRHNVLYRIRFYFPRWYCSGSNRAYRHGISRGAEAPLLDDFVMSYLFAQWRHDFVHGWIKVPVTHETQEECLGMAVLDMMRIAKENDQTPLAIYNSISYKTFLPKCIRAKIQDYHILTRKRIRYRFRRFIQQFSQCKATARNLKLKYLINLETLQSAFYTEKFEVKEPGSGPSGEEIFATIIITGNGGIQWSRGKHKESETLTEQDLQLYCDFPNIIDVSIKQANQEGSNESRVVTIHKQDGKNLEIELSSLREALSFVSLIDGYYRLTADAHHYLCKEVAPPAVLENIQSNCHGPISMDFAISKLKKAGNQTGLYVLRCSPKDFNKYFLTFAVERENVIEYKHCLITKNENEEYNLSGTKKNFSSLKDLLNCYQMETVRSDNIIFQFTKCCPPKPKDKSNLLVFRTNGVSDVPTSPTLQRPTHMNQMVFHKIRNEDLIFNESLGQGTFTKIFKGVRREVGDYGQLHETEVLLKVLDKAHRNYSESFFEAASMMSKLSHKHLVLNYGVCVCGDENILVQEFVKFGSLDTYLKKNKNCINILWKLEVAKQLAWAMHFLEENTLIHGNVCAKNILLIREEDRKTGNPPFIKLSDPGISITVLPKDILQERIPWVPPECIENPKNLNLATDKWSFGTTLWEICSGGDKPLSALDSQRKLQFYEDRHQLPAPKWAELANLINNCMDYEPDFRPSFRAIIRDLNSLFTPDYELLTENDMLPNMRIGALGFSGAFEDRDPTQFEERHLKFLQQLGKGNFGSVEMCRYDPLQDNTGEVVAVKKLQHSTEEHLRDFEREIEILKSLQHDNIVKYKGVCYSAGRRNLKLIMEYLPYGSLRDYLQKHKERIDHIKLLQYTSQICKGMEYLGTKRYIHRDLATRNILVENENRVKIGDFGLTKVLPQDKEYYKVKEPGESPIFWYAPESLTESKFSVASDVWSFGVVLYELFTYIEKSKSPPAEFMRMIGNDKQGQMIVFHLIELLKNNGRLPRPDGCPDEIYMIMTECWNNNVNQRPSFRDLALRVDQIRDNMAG
Chain of Grb2 SH2 (P62993 whole entry, looked up): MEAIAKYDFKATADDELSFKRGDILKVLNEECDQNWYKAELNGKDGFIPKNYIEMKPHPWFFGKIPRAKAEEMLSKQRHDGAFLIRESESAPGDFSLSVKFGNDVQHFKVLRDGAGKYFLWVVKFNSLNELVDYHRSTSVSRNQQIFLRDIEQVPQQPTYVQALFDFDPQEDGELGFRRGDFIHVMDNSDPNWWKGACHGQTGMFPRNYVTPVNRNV
Chain of EPHB1 (P54762 whole entry, looked up): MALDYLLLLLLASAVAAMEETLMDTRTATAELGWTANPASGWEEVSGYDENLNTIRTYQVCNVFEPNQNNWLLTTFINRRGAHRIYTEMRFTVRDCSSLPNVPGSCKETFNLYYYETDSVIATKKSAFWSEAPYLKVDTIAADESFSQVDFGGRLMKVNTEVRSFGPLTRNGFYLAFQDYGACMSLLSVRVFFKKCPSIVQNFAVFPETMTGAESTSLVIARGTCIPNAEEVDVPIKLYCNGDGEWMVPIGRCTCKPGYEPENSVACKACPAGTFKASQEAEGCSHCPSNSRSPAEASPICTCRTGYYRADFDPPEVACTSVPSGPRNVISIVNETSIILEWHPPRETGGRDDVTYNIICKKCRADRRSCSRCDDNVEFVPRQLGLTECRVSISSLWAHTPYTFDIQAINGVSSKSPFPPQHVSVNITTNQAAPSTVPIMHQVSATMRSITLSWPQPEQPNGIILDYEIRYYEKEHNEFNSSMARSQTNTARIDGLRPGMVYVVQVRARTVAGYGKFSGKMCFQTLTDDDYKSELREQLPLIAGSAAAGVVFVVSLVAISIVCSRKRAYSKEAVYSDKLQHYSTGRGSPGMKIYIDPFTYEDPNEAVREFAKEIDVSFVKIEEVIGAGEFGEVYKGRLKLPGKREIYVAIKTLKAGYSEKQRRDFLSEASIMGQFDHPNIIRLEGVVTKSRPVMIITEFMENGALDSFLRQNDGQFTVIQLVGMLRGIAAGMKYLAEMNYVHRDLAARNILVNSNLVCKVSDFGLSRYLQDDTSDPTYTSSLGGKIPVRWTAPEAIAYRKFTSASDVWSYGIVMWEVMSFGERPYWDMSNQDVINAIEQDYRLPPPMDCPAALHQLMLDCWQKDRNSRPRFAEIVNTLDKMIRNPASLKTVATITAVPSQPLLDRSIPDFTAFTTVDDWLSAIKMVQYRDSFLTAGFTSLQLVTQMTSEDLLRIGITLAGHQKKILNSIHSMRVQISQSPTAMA
Chain of FGFR3 (P22607 whole entry, looked up): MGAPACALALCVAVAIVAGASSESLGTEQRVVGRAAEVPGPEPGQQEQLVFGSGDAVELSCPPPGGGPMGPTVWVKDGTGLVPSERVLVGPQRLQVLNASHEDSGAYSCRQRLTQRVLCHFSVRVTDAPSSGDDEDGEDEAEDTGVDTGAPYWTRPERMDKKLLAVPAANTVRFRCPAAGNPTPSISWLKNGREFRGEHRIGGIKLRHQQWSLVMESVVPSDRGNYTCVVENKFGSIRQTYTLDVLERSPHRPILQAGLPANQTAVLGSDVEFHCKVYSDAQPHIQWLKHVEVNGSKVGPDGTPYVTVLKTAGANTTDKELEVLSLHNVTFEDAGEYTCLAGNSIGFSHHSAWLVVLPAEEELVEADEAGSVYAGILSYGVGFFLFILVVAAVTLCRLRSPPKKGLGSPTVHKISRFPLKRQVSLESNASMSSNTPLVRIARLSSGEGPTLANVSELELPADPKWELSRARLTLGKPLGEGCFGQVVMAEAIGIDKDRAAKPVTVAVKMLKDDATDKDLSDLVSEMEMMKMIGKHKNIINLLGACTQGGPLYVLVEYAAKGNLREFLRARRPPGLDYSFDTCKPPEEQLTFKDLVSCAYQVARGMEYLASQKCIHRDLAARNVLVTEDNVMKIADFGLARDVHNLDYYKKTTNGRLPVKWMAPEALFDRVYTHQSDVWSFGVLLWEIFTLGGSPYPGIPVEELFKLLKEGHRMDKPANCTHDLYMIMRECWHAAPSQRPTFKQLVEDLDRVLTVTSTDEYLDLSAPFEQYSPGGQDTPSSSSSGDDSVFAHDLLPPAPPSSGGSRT
Chain of Hck (P08631 whole entry, looked up): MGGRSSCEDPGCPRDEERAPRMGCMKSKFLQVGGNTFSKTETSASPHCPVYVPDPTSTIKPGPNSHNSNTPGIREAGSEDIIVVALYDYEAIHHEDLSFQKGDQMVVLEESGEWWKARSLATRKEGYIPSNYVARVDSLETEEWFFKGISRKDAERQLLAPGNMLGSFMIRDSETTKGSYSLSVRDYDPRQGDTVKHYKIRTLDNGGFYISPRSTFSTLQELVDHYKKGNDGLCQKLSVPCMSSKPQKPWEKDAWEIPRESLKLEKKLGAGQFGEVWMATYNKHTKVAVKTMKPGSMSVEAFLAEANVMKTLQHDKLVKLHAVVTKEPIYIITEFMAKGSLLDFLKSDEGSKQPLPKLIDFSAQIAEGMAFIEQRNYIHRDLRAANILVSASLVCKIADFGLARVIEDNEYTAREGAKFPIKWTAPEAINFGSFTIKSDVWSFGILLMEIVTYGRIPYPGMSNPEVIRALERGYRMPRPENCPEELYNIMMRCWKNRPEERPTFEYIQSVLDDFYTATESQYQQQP
Chain of Fyn (P06241 whole entry, looked up): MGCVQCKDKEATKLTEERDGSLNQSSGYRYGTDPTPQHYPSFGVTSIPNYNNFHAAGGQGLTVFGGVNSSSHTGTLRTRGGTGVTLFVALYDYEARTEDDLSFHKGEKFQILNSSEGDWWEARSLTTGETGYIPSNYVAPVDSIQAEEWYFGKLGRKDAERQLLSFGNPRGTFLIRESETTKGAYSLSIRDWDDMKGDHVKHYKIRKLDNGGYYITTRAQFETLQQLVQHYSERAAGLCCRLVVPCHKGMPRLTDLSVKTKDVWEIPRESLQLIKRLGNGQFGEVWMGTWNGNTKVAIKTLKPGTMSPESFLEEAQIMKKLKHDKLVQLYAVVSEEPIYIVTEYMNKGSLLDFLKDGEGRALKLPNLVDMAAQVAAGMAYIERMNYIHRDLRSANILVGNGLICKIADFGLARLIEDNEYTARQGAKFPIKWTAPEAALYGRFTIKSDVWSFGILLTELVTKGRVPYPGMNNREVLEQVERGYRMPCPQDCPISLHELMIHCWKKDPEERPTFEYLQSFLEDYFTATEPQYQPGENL

Turning to PLDGEYVTLQI [TP53_Y327_F328V], the phosphorylation enrichment amounted to 1.56 in the data set on AncSZ; 0.802 with EPHB1; 0.789 in the data set with EPHB2; 1.75 with FGFR1; 1.57 with FGFR3; 0.609 in the data set on Fer (mouse). Also, the phosphorylation enrichment in the data set with Fes stood at 1.32; with Fyn it was 0.984; with Hck it was 0.922; with Jak2, 1.37; with MERTK, 0.477; with c-Abl (mouse), 1.17. Besides, in the data set on c-Src, the phosphorylation enrichment was 0.919. Also, the SH2 binding enrichment with Grb2 SH2 turned out to be 0.615; with SHP2-C SH2 it was 0.498; with c-Src SH2 it was 0.349.

On to PLDVEYFTLQI [TP53_Y327_G325V], for which the phosphorylation enrichment is 2.47 in the data set on AncSZ; 0.804 with EPHB1; 0.659 with EPHB2; 7.84 with FGFR1; 5.88 with FGFR3; 0.578 in the data set on Fer (mouse). Moreover, the phosphorylation enrichment with Fes was found to be 1.46; with Fyn, 2.35; with Hck, 1.2; with Jak2 it was 2.69; with MERTK, 0.55; in the data set on c-Abl (mouse), 1.11. Besides, the phosphorylation enrichment with c-Src was 2.72. Further, the SH2 binding enrichment with Grb2 SH2 turned out to be 0.743; with SHP2-C SH2, 0.604; in the data set with c-Src SH2, 0.309.

Take PLLEYYWDIFT [CDAN1_Y713_R714W]: the phosphorylation enrichment came to 2.64 in the data set with AncSZ; 2.64 with EPHB1; 1.28 in the data set with EPHB2; 8.76 with FGFR1; 7.06 with FGFR3; 0.906 with Fer (mouse). The phosphorylation enrichment with Fes worked out at 2.27; in the data set with Fyn, 1.32; with Hck, 0.79; with Jak2 it was 2.65; in the data set with MERTK it was 1.02; with c-Abl (mouse), 1.61. Besides, the phosphorylation enrichment with c-Src stood at 1.19. Further, the SH2 binding enrichment with Grb2 SH2 was 1.25; in the data set with SHP2-C SH2, 1.25; with c-Src SH2, 0.959.

In the case of PLLLSYFLIKW [NUP160_Y773_YF], the phosphorylation enrichment with AncSZ worked out at 1.37; with EPHB1, 0.909; in the data set with EPHB2 it was 0.622; with FGFR1, 1.53; with FGFR3 it was 1.73; with Fer (mouse) it was 0.37. Also, the phosphorylation enrichment with Fes stood at 1.8; with Fyn it was 0.561; with Hck, 0.761; in the data set with Jak2 it was 3.01; with MERTK, 0.558; in the data set with c-Abl (mouse) it was 1.33. Also, in the data set with c-Src, the phosphorylation enrichment was determined as 0.684. Further, the SH2 binding enrichment with Grb2 SH2 turned out to be 1.13; in the data set with SHP2-C SH2, 1.04; with c-Src SH2, 0.662.

Turning to PLRANYLIARV [HLCS_Y635_D634N], the phosphorylation enrichment with AncSZ is 0.927; with EPHB1, 1.12; with EPHB2, 0.861; in the data set with FGFR1 it was 0.707; in the data set with FGFR3, 0.853; with Fer (mouse), 0.7. The phosphorylation enrichment in the data set with Fes was 1.12; with Fyn it was 0.769; with Hck, 0.763; with Jak2, 1.27; in the data set with MERTK, 0.716; with c-Abl (mouse), 2.74. In the data set on c-Src, the phosphorylation enrichment came to 1.01. The figures for the SH2 binding enrichment in the data set with Grb2 SH2, with SHP2-C SH2 and in the data set with c-Src SH2 were 1.27, 1.29 and 0.992, respectively.

As for PLYRKYWPNHI [GREB1L_Y1560], the phosphorylation enrichment in the data set on AncSZ was 1.48; with EPHB1, 0.813; with EPHB2, 0.645; with FGFR1 it was 1.15; with FGFR3, 1.07; with Fer (mouse) it was 0.84. For the same sequence, the phosphorylation enrichment with Fes turned out to be 1.34; with Fyn, 1.07; with Hck it was 1.11; with Jak2, 0.95; with MERTK, 0.708; in the data set on c-Abl (mouse) it was 1.05. In addition, in the data set with c-Src, the phosphorylation enrichment was determined as 0.882. For the same sequence, the figures for the SH2 binding enrichment in the data set with Grb2 SH2, with SHP2-C SH2 and with c-Src SH2 were 1.09, 1.24 and 0.822, respectively.

For the sequence PPTFRYERGSR [INPPL1_Y663_YF], the phosphorylation enrichment in the data set with AncSZ was 0.974; in the data set with EPHB1, 0.503; in the data set with EPHB2 it was 0.579; with FGFR1, 0.803; with FGFR3, 0.69; in the data set on Fer (mouse) it was 0.546. Also, the phosphorylation enrichment came to 0.822 with Fes; 0.671 with Fyn; 0.622 in the data set with Hck; 0.692 with Jak2; 0.753 with MERTK; 0.704 in the data set on c-Abl (mouse). Besides, the phosphorylation enrichment in the data set with c-Src is 0.521. The SH2 binding enrichment stood at 0.503 in the data set with Grb2 SH2, 0.318 in the data set with SHP2-C SH2 and 0.336 with c-Src SH2.

Turning to PQEVTYAQLDH [KIR3DL2_Y398], the phosphorylation enrichment in the data set on AncSZ worked out at 2.44; in the data set with EPHB1, 1.3; with EPHB2, 1.33; with FGFR1, 3.41; with FGFR3 it was 2.12; in the data set on Fer (mouse), 3.3. The phosphorylation enrichment with Fes amounted to 2.64; with Fyn, 9.11; in the data set with Hck it was 10.7; with Jak2, 2.87; in the data set with MERTK, 3.38; in the data set on c-Abl (mouse) it was 4.39. For the same sequence, in the data set with c-Src, the phosphorylation enrichment was 13.6. Moreover, the figures for the SH2 binding enrichment with Grb2 SH2, with SHP2-C SH2 and with c-Src SH2 were 0.873, 8.91 and 1.25, respectively.

Values taken from the supplement of paper PMC10065799, “High-throughput profiling of sequence recognition by tyrosine kinases and SH2 domains using bacterial peptide display” (eLife, 2023).
